Measured values from paper PMC7305985 (Molecular cell, 2020).

Target: Histone H4 N-terminal peptide, biotinylated (1–23) (UniProt P62805 2-24, biotin (position not given))
Assay: pull-down

- binding result: binds
Binder: SATICRVCQKPGDLVMCNQCEFCFHLDCHLPALQDVPGEEWSCSLCHVLP (domain or fragment, UniProt Q13263 624-673, looked up) [GST-tagged KAP1 PHD (residues 624–673)]
